Where “and” joins values, the source holds several entries; their conditions need not be identical. Identical values can stand only once.
Experiments:
Experiment in all cases: cell-based or functional assay
[1] = target: HA of A/Fort Monmouth/1/47 (H1N1) (influenza A virus)
[2] = target: HA of A/New Jersey/8/76 (H1N1) (influenza A virus)
[3] = target: HA of A/Kawasaki/9/86 (H1N1) (influenza A virus)
[4] = target: HA of ca A/Texas/36/91 (H1N1) (influenza A virus)
[5] = target: HA of ca A/Beijing/262/95 (H1N1) (influenza A virus)
[6] = target: HA of ca A/New Caledonia/20/99 (H1N1) (influenza A virus)
HA of virus H1-BS10 = target: HA of virus H1-BS10
[7] = target: HA of ca A/Japan/57 (H2N2) (influenza A virus)
[8] = target: HA of ca A/swine/Missouri/06 (H2N3) (influenza A virus)
[9] = target: HA of ca A/Vietnam/1203/04 (H5N1) (influenza A virus)
[10] = target: HA of ca A/Hong Kong/213/03 (H5N1) (influenza A virus)
[11] = target: HA of ca A/mallard/Alberta/89/85 (H6N2) (influenza A virus)
[12] = target: HA of ca A/teal/Hong Kong/W312/97 (H6N1) (influenza A virus)
[13] = target: HA of ca A/chicken/Hong Kong/G9/97 (H9N2) (influenza A virus)
[14] = target: HA of A/Hong Kong/8/68 (H3N2) (influenza A virus)
[15] = target: HA of A/Victoria/3/75 (H3N2) (influenza A virus)
[16] = target: HA of ca A/Sydney/5/97 (H3N2) (influenza A virus)
[17] = target: HA of ca A/Panama/2007/99 (H3N2) (influenza A virus)
[18] = target: HA of A/Wisconsin/67/05 (H3N2) (influenza A virus)
[19] = target: HA of ca A/Perth/16/09 (H3N2) (influenza A virus)
[20] = target: HA of A/Victoria/361/11 (H3N2) (influenza A virus)
[21] = target: HA of ca A/Netherlands/219/03 (H7N7) (influenza A virus)
[22] = target: HA of ca A/Brit. Columbia/CN-6/04 (H7N3-LP) (influenza A virus)
[23] = target: HA of swine-origin A/Minnesota/11/2010 H3N2 virus (influenza A virus)

B1: Antibody 15 (antibody, V domains shown)
VH: QVQLQQSGPGLVKPSQTLSLTCAISGDSVSSNNAVWNWIRQSPSRGLEWLGRTYYRSKWYNDYAESVKSRITINPDTSKNQFSLQLNSVTPEDTAVYYCARSGHITVFGVNVDAFDMWGQGTTVTVSS
VL: DIQMTQSPSSLSASVGDRVTITCRTSQSLSSYTHWYQQKPGKAPKLLIYAASSRGSGVPSRFSGSGSGTDFTLTISSLQPEDFATYYCQQSRTFGQGTKVEIK
With B1 the “Neutralization IC50, H1-FM47” value [1] was 0.35 µg/mL, the “Neutralization IC50, H1-NJ76” value [2] was 0.25 µg/mL and the “Neutralization IC50, H1-Kaw86” value [3] was 0.48 µg/mL. The “Neutralization IC50, H1-TX91” value [4] was 0.13 µg/mL, the “Neutralization IC50, H1-BJ95” value [5] was 1.81 µg/mL and the “Neutralization IC50, H1-Ncal99” value [6] was 0.79 µg/mL. The “Neutralization IC50, H1-BS10” value (HA of virus H1-BS10) was 1.89 µg/mL, the “Neutralization IC50, H2-JP57” value [7] was 0.33 µg/mL and the “Neutralization IC50, H2-MO06” value [8] was 0.83 µg/mL. For the same binder, the “Neutralization IC50, H5-VM04” value [9] was 0.28 µg/mL, the “Neutralization IC50, H5-HK03” value [10] was 0.05 µg/mL and the “Neutralization IC50, H6-AB85” value [11] was 0.19 µg/mL. The “Neutralization IC50, H6-HK97” value [12] was 0.33 µg/mL, the “Neutralization IC50, H9-HK97” value [13] was 0.35 µg/mL and the “Neutralization IC50, H3-HK68” value [14] was 0.5 µg/mL. For the same binder, the “Neutralization IC50, H3-Vic75” value [15] was 0.35 µg/mL, the “Neutralization IC50, H3-Syd97” value [16] was 1.79 µg/mL and the “Neutralization IC50, H3-Pa99” value [17] was 3.39 µg/mL. The “Neutralization IC50, H3-WI05” value [18] was 1.3 µg/mL, the “Neutralization IC50, H3-Perth09” value [19] was 0.5 µg/mL and the “Neutralization IC50, H3-VC11” value [20] was 1.29 µg/mL. For the same binder, the “Neutralization IC50, H7-NLD03” value [21] was 1.3 µg/mL, the “Neutralization IC50, H7-BC04” value [22] was 1.25 µg/mL and the “Neutralizing activity IC50, swine-origin A/Minnesota/11/2010” value (from here on “Neutralizing activity IC50”) [23] was 0.9 µg/mL and 2.7 µg/mL.

B2: Antibody 13 (antibody, V domains shown)
VH: QVQLQQSGPGLVKPSQTLSLTCAISGDSVSSYNAVWNWIRQSPSRGLEWLGRTYYRSGWYNDYAESVKSRITINPDTSKNQFSLQLNSVTPEDTAVYYCARSGHITVFGVNVDAFDMWGQGTMVTVSS
VL: DIQMTQSPSSLSASVGDRVTITCRTSQSLSSYDHWYQQKPGKAPKLLIYAASSRLSGVPSRFSGSGSGTDFTLTISSLQPEDFATYYCQQSRTFGQGTKVEIK
In the case of B2, the “Neutralization IC50, H1-FM47” value [1] is reported as 0.5 µg/mL, the “Neutralization IC50, H1-NJ76” value [2] is reported as 0.12 µg/mL and the “Neutralization IC50, H1-Kaw86” value [3] is reported as 0.41 µg/mL. For the same binder, the “Neutralization IC50, H1-TX91” value [4] was 0.09 µg/mL, the “Neutralization IC50, H1-BJ95” value [5] was 1.86 µg/mL and the “Neutralization IC50, H1-Ncal99” value [6] was 0.77 µg/mL. For the same binder, the “Neutralization IC50, H1-BS10” value (HA of virus H1-BS10) was 1.23 µg/mL, the “Neutralization IC50, H2-JP57” value [7] was 0.47 µg/mL and the “Neutralization IC50, H2-MO06” value [8] was 0.57 µg/mL. For the same binder, the “Neutralization IC50, H5-VM04” value [9] was 0.56 µg/mL, the “Neutralization IC50, H5-HK03” value [10] was 0.17 µg/mL and the “Neutralization IC50, H6-AB85” value [11] was 0.29 µg/mL. For the same binder, the “Neutralization IC50, H6-HK97” value [12] was 0.55 µg/mL, the “Neutralization IC50, H9-HK97” value [13] was 0.29 µg/mL and the “Neutralization IC50, H3-HK68” value [14] was 0.44 µg/mL. The “Neutralization IC50, H3-Vic75” value [15] was 0.43 µg/mL, the “Neutralization IC50, H3-Syd97” value [16] was 2.18 µg/mL and the “Neutralization IC50, H3-Pa99” value [17] was 2.62 µg/mL. The “Neutralization IC50, H3-WI05” value [18] was 1.19 µg/mL, the “Neutralization IC50, H3-Perth09” value [19] was 0.28 µg/mL and the “Neutralization IC50, H3-VC11” value [20] was 1.03 µg/mL. For the same binder, the “Neutralization IC50, H7-NLD03” value [21] was 2.45 µg/mL, the “Neutralization IC50, H7-BC04” value [22] was 0.96 µg/mL and the “Neutralizing activity IC50” value [23] was 1.6 µg/mL and 1.4 µg/mL.

B3: Antibody 11 (antibody, V domains shown)
VH: QVQLQQSGPGLVKPSQTLSLTCAISGDSVSSYNAVWNWIRQSPSRGLEWLGRTYYRSGWYNDYAESVKSRITINPDTSKNQFSLQLNSVTPEDTAVYYCARSGHITVFGVNVDAFDMWGQGTMVTVSS
VL: DIQMTQSPSSLSASVGDRVTITCRTSQSLSSYTHWYQQKPGKAPKLLIYAASSRLSGVPSRFSGSGSGTDFTLTISSLQPEDFATYYCQQSRTFGQGTKVEIK
With B3 the “Neutralization IC50, H1-FM47” value [1] was 0.43 µg/mL, the “Neutralization IC50, H1-NJ76” value [2] was 0.13 µg/mL and the “Neutralization IC50, H1-Kaw86” value [3] was 0.53 µg/mL. For the same binder, the “Neutralization IC50, H1-TX91” value [4] was 0.11 µg/mL, the “Neutralization IC50, H1-BJ95” value [5] was 1.01 µg/mL and the “Neutralization IC50, H1-Ncal99” value [6] was 0.66 µg/mL. The “Neutralization IC50, H1-BS10” value (HA of virus H1-BS10) was 1.15 µg/mL, the “Neutralization IC50, H2-JP57” value [7] was 0.31 µg/mL and the “Neutralization IC50, H2-MO06” value [8] was 0.6 µg/mL. The “Neutralization IC50, H5-VM04” value [9] was 0.57 µg/mL, the “Neutralization IC50, H5-HK03” value [10] was 0.21 µg/mL and the “Neutralization IC50, H6-AB85” value [11] was 0.24 µg/mL. The “Neutralization IC50, H6-HK97” value [12] was 0.4 µg/mL, the “Neutralization IC50, H9-HK97” value [13] was 0.36 µg/mL and the “Neutralization IC50, H3-HK68” value [14] was 0.46 µg/mL. The “Neutralization IC50, H3-Vic75” value [15] was 0.46 µg/mL, the “Neutralization IC50, H3-Syd97” value [16] was 1.53 µg/mL and the “Neutralization IC50, H3-Pa99” value [17] was 2.18 µg/mL. For the same binder, the “Neutralization IC50, H3-WI05” value [18] was 1.07 µg/mL, the “Neutralization IC50, H3-Perth09” value [19] was 0.17 µg/mL and the “Neutralization IC50, H3-VC11” value [20] was 0.85 µg/mL. The “Neutralization IC50, H7-NLD03” value [21] was 0.94 µg/mL, the “Neutralization IC50, H7-BC04” value [22] was 0.71 µg/mL and the “Neutralizing activity IC50” value [23] was 1.6 µg/mL and 1.5 µg/mL.

— US20160257732A1 (published 2016)
